Source: article doi:10.1101/2021.05.03.442466

Key:
[1] = biological target: salt stripped chicken erythrocyte mononucleosomes (chicken (endogenous in erythrocytes)); experiment: native gel or EMSA
HMGN1 = HMGN1 (UniProt P05114); experiment: co-IP
HMGN2 = HMGN2 (UniProt P05204); experiment: co-IP

H3K27ac level in HA complexes over LA MNs (dot blot) [1] [times] | H3K27ac level in HMGN-bound ON over input ON (dot blot) (HMGN1) [fold] | H3K27ac signal in HMGN1-bound over input nucleosomes (Western) (HMGN1) [fold] | H3K27ac level in HMGN-bound ON over input ON (dot blot) (HMGN2) [fold] | H3K27ac level in HA over LA fraction (Western) [1] [fold] | percent of total MNs not shifted (LA fraction) at HMGN:MN ratio 2.0 [1] [%] | percent of total MNs shifted (HA fraction) at HMGN1:MN ratio 0.2 [1] [%] | Molecule
1.5 | – | – | – | – | – | – | HMGN2 (from UniProt P05204 1-90) (natural protein)
– | > 3 | 2.7 | > 3 | – | – | – | salt-stripped oligonucleosomes from mouse embryonic fibroblasts (complex)
1.5 | – | – | – | 2 | 12 | 9 | HMGN1 (natural protein) MPKRKVSSAEGAAKEEPKRRSARLSAKPPAKVEAKPKKAAAKDKSSDKKVQTKGKRGAKGKQAEVANQETKEDLPAENGETKTEESPASDEAGEKEAKSD
